Data as given in paper PMC11507878.

Target: GST-fused Par-6 CRIB-PDZ (UniProt O97111)
Assay: pull-down

fold increase of binding with Par-3 PDZ2 against without: > 20 fold
Substance: Par complex ΔCRIB-PDZ (full length aPKC with the Par-6 PB1 domain) (from UniProt A1Z9X0 1-606)
